Consider one substance from PMC6336734.

The target in the test is Recombinant PP35 gp156 tail spike protein (Dickeya bacteriophage PP35). Description: SEC. Background: SEC sorts molecules by how far they enter the pores of the column.

Broadly, the stoichiometry N is the number of molecules, sites or subunits per partner or assembly. For the substance “Recombinant PP35 gp156 tail spike protein (natural protein)”, the stoichiometry N amounted to 3.
